Assay results taken from publication PMC4966845 (mAbs, 2016).
Where two headings read alike, the source gives them in different places.

Assays:
[1] = biological target: T1, human IGF-1R extracellular domain (Homo sapiens, UniProt P08069); assay: SPR
[2] = biological target: T2, IGF-1R on tumor cells (A549, TC-71) (Homo sapiens (A549, TC-71 cells), UniProt P08069); assay: flow cytometry on cells
[3] = biological target: T2, IGF-1R on tumor cells (A549, TC-71); assay: flow cytometry on cells; remark: listed apart in the source
[4] = biological target: T1, human IGF-1R extracellular domain; assay: SPR; remark: listed apart in the source

T1 sequence (P08069 741-935): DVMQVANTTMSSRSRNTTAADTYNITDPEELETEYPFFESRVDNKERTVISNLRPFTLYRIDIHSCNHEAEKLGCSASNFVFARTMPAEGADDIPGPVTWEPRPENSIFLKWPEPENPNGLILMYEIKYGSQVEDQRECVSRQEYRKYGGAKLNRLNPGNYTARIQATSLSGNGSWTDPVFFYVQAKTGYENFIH
T2 sequence (P08069 31-1367): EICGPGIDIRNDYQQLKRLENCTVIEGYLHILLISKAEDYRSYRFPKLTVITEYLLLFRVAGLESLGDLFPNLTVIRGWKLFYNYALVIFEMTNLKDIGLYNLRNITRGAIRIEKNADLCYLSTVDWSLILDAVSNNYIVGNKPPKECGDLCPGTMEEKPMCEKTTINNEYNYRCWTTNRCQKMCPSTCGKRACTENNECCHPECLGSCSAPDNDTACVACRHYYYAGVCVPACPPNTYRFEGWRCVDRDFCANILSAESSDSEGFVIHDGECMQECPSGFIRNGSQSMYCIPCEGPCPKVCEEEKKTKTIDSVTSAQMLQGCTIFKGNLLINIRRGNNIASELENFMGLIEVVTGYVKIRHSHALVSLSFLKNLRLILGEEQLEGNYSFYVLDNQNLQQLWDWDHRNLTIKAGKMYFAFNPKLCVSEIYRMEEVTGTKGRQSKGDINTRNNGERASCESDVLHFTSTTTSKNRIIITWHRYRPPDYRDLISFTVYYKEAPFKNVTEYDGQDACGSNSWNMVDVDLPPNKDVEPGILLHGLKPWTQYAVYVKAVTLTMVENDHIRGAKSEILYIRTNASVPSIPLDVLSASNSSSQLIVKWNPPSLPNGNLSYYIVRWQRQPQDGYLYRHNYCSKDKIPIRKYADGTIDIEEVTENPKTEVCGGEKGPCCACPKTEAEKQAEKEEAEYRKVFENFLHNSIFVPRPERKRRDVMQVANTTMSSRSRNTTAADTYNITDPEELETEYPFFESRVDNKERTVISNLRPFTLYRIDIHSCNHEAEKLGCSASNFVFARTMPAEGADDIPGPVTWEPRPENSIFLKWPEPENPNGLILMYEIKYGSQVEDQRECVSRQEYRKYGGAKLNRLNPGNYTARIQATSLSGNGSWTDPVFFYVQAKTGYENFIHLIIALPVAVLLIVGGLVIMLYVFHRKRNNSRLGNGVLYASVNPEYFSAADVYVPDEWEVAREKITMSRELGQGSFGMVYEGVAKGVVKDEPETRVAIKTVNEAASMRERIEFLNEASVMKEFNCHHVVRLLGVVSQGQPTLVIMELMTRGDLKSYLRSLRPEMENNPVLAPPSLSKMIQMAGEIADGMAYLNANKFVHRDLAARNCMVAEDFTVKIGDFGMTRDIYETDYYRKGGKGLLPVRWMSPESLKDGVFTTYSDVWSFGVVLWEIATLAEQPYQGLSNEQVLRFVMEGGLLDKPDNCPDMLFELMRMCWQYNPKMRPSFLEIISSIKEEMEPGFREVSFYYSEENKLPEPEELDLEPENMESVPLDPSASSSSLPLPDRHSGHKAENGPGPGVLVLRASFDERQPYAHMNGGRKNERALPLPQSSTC

Row | Kd [1] [nM] | koff [1] [s⁻¹] | kon [1] [M⁻¹ s⁻¹] | fold reduction of binding against bivalent R1507 [2] [fold] | fold reduction of binding against bivalent R1507 [3] [fold] | Kd [4] [nM] | IC50 [3] [nM] | Binder
1 | 1.47 | 0.00025 | 170000 |  |  |  |  | F13B5 Fab fragment (Fab, V domains shown) VH: QVELVESGGGVVQPGRSQRLSCAASGFTFSSYGMHWVRQAPGKGLEWVAIIWFDGSSTYYADSVRGRFTISRDNSKNTLYLQMNSLRAEDTAVYFCARELGRRYFDLWGRGTLVSVSS VL: EIVLTQSPATLSLSPGERATLSCRASQSVSSYLAWYQQKPGQAPRLLIYQASKRATGIPARFSGSGSGTDFTLTISSLEPEDFAVYYCQQRSKYPPWTFGQGTKVESK
2 | 18 | 0.00271 | 153000 | ~10 | ~34 |  |  | R1507 Fab fragment (Fab, V domains shown) VH: QVELVESGGGVVQPGRSQRLSCAASGFTFSSYGMHWVRQAPGKGLEWVAIIWFDGSSTYYADSVRGRFTISRDNSKNTLYLQMNSLRAEDTAVYFCARELGRRYFDLWGRGTLVSVSS VL: EIVLTQSPATLSLSPGERATLSCRASQSVSSYLAWYQQKPGQAPRLLIYDASKRATGIPARFSGSGSGTDFTLTISSLEPEDFAVYYCQQRSKWPPWTFGQGTKVESK
3 |  |  |  |  |  | 5 | ~1 | R1507, bivalent monospecific anti-IGF-1R antibody (antibody, V domains shown) VH: QVELVESGGGVVQPGRSQRLSCAASGFTFSSYGMHWVRQAPGKGLEWVAIIWFDGSSTYYADSVRGRFTISRDNSKNTLYLQMNSLRAEDTAVYFCARELGRRYFDLWGRGTLVSVSS VL: EIVLTQSPATLSLSPGERATLSCRASQSVSSYLAWYQQKPGQAPRLLIYDASKRATGIPARFSGSGSGTDFTLTISSLEPEDFAVYYCQQRSKWPPWTFGQGTKVESK
